Measurements taken from patent publication US20070231258A1, “Peptide conjugates” (KARYON CTT LTD., priority 2006, published 2007).
*1 amine or outer side, *2 acyl side, *3 side chain or, on linkers, in order; H or OH if unused. Where a SMILES comes first, the peptide text is derived from it. Bridges are numbered along the chain shown (N, C = ends). Primed or numbered codes have the meaning given here. [ ]: non-standard residue; d: D form. The star is where a group is joined. X1 = O=C(O)CN(CCN(CC(=O)O)CC(Cc1ccc(NC(=S)NCCOCCOCCN*)cc1)N(CC(=O)O)CC(=O)O)CC(=O)O; DTPA′ = diethylenetriaminepentaacetic acid chelator; NHCH2CH2SCH2CO = O=C(CSCCN[*:1])[*:2]; NH(CH2CH2O)2CH2CH2NH2 = NCCOCCOCCN*; AEEEA = NCCOCCOCCOCC(=O)O; PEG3 = NCCOCCOCCOCCC(=O)O; AABz = not defined here

Columns and labels:
in vitro = conditions: human, plasma
Experimental: (§1) The peptide conjugates (10-20 μg) was added to a human blood plasma/PBS mixture (1:1) in a total volume of 500 μl and incubated at 37° C. After incubation 100 μl per time point (0 and 240 min) was transferred to YM-10 (Microcon, cut-off 10000 MW; manufacturer Millipore), centrifuged (10000 RPM) 15 min at 4° C. 50 μl of the spin-through material was analyzed by HPLC.
(§2) HPLC: Waters 626 pump, 600S controller, Waters 996 photo diode array detector. Column: C18, 300 Å, 5 μm, 2.1×250 mm. Eluents for the non-conjugated functional peptides: A 0.1% TFA, B 0.075% TFA/100% ACN. Gradient: 0-100% B in 60 min. Flow: 180 μl/min. Loop: 50 μl.
(§3) Eluents for the functional peptide conjugates: Eluent A: 0.05 M ammonium acetate; B: 50% 0.05 M ammonium acetate/50% ACN. Gradient: 0-100% B in 60 min. Flow: 180 μl/min. Loop: 50 μl. One-minute fractions were collected and analyzed with MALDI-TOF.
(§4) Peptide mass: Bruker Ultraflex MALDI-TOF, N2-laser 337 nm, matrix saturated solution of α-cyano-4-hydroxycinnamic acid, reflector mode.

[1] = Plasma protein binding and plasma stability assay in vitro (ultrafiltration, LC/MS/MS); type: in vitro ADME, mouse
Experimental: The plasma protein binding and plasma stability of the targeting agents MJ143 (lactam-bridged; described in Example 8) and MJ142 (cystine-bridged; described below) comprising functional peptide LRSGRG was compared in mouse plasma in vitro.
The study compounds were spiked to mouse plasma to give 10 μM concentration. The samples of 1.5 ml were incubated at 37° C. and 200 μl aliquots were taken after 0 min, 30 min, 60 min, 2 h and 4 h. Incubations were made in duplicate. The aliquot samples were ultrafiltrated for 30 min (Millipore YM-10 filters, 10 kDa cut-off, 12 000 rpm) and the supernatants were analysed using LC/MS/MS. The sample concentrations were quantified against calibration curves created using standard samples spiked to ultrafiltrated mouse plasma to concentrations 0.1, 0.5, 1, 5 and 10 μM.
A Finnigan Surveyor chromatographic system (Thermo-Finnigan, San Jose, Calif., USA) with autosampler, vacuum degasser and column oven was used in the analysis. The analytical column was a Waters SymmetryShield RP18, 2.1×50 mm, 3.5 μm together with Phenomenex Luna C18 precolumn, 4.0×2.0 mm, 3.0 μm (Phenomenex, Torrance, Calif., USA). The eluents were (A) 0.02% acetic acid in water (pH 3.6) and (B) methanol, with flow rate of 300 μl/min. The elution gradient was from 5% B to 90% B in five minutes, followed by column equilibration. The column oven temperature was 30° C. LC/MS/MS data was acquired with a Finnigan TSQ Discovery MAX triple quadrupole mass spectrometer equipped with an Ion MAX electrospray ionization source. Before LC/MS/MS runs, the instrument was tuned with a 5 μg/ml solution of study compounds to obtain the maximum sensitivity with multiple reaction mode. The collision gas was argon at 1.5 mTorr.

C8161 tumors = assay: Targeting peptide biodistribution (Eu content of tissues) in C8161 tumor-bearing mice; type: in vivo, athymic nude mice; conditions: 4 nmol i.v. tail vein, 20 min circulation; for accumulation of europium in tumor compared to normal tissue: kidney high due to excretion; for ratio of tumor Eu-content to muscle Eu-content: perfused
Experimental: It is shown that the tested conjugates according to the present invention selectively target to primary tumors in vivo but not to normal tissues or organs.
For production of experimental tumors 1×10^6 cells of C8161 line (described in Example 9) were injected subcutaneously into the flank of athymic nude mice strain (Harlan Laboratories). Tumors were harvested when they had reached a weight of about 0.1 g. Tumor-bearing mice were anesthetized by 0.02 ml/g body weight of Avertin [10 g 2,2,2-tribromoethanol (Fluka) in 10 ml 2-methyl-2-butanol (Sigma Aldrich)] intraperitoneally (i.p.).
To determine the biodistribution pattern of the conjugates, 4 nmol of MJ015 or MJ053 was injected into the tail vein of athymic nude mice in a volume of 100 μl in physiological saline solution (Baxter). The conjugate was allowed to circulate for 20 min. Mice were then perfused through the heart with 60 ml of physiological saline. Organs and tissues, including tumors were collected and weighed.
For determination of the Eu content of the tumors and control organs, 0.1-0.2 g of tissue was transferred into lysis buffer (20 mM Tris-HCl, 150 mM NaCl, 1% Nonident P40, pH 7.5) and homogenized. Eu-content was analyzed from tissue lysates prepared into the DELFIA Inducer solution (Perkin Elmer Wallac Ltd., Turku, Finland) and transferred to DELFIA Micro titration strip plates (Perkin Elmer Wallac Ltd, Turku, Finland). Time-resolved fluorescence was measured after incubation with a Wallac 1420 VICTOR3™ V plate reader using a D615 nm filter.

[2] = Plasma stability of the peptide conjugates in human blood plasma/PBS (HPLC)
Experimental: as §1, §2, §3, §4

Molecule: CC(C)C[C@@H]1NC(=O)[C@@H](NC(=O)CN)CSSC[C@@H](C(=O)NCC(=O)NCCOCCOCCN)NC(=O)CNC(=O)[C@H](CCCNC(=N)N)NC(=O)CNC(=O)[C@H](CO)NC(=O)[C@H](CCCNC(=N)N)NC1=O [KK12, Gly-Cys*-Leu-Arg-SerGly-Arg-Gly-Cys*-Gly-NH(CH2CH2O)2CH2CH2NH2, reference compound] (H-GCLRSGRGCG-{NH(CH2CH2O)2CH2CH2NH2}; disulfide 2-9; N-terminus assumed)
- remaining at 4 h (in vitro): 25%

Molecule: CC(C)C[C@@H]1NC(=O)[C@@H](C)NC(=O)CC[C@@H](C(=O)NCCOCCOCCN)NC(=O)CNC(=O)[C@H](CCCNC(=N)N)NC(=O)CNC(=O)[C@H](CO)NC(=O)[C@H](CCCNC(=N)N)NC1=O [KK51, D-Ala*-Leu-Arg-SerGly-Arg-Gly-Glu*-NH(CH2CH2O)2CH2CH2NH2] ([dA]LRSGRGE-{NH(CH2CH2O)2CH2CH2NH2}; lactam N-8)
- remaining at 4 h (in vitro): 92%

Molecule: CC(=O)N[C@H]1CSSC[C@@H](C(=O)NCC(=O)N[C@@H](C)C(=O)NCCOCCOCCNC(=S)Nc2ccc(CC(CN(CCN(CC(=O)O)CC(=O)O)CC(=O)O)N(CC(=O)O)CC(=O)O)cc2)NC(=O)CNC(=O)[C@H](CCCNC(=N)N)NC(=O)CNC(=O)[C@H](CO)NC(=O)[C@H](CCCNC(=N)N)NC(=O)[C@H](CC(C)C)NC1=O (stereo partly shown) [MJ142, reference compound] (Ac-CLRSGRGCGA-X1; disulfide 1-8)
- fraction unbound at 0 h, 10 μM ([1]; 0 h, mouse plasma, 10 μM, 37° C., ultrafiltrate, read-out: Peptide-DTPA[In] relative remaining peak areas/unbound fraction (%)): 0.48
- fraction unbound at 30 min, 10 μM ([1]; 30 min, mouse plasma, 10 μM, 37° C., ultrafiltrate, read-out: Peptide-DTPA[In] relative remaining peak areas/unbound fraction (%)): 0.44
- fraction unbound at 1 h, 10 μM ([1]; 1 h, mouse plasma, 10 μM, 37° C., ultrafiltrate, read-out: Peptide-DTPA[In] relative remaining peak areas/unbound fraction (%)): 0.35
- fraction unbound at 2 h, 10 μM ([1]; 2 h, mouse plasma, 10 μM, 37° C., ultrafiltrate, read-out: Peptide-DTPA[In] relative remaining peak areas/unbound fraction (%)): 0.19
- fraction unbound at 4 h, 10 μM ([1]; 4 h, mouse plasma, 10 μM, 37° C., ultrafiltrate, read-out: Peptide-DTPA[In] relative remaining peak areas/unbound fraction (%)): 0.06
- fraction unbound at 0 min, 10 μM ([1]; mouse plasma, 0 min incubation, during the 30 min ultrafiltration period, read-out: disappearance due to protein binding (converted)): ~0.48

Molecule: a*IREE*-Tegc-AEM-AABz-DTPA-Eu [MJ053]
- accumulation of europium in tumor compared to normal tissue (C8161 tumors): accumulated strongly and selectively in C8161 tumors
- ratio of tumor Eu-content to muscle Eu-content (C8161 tumors): 3.9

Molecule: a*LRSGRGE*-Teg-AEM-AABz-DTPA-Eu (LRSGRGE-{AEEEA-NHCH2CH2SCH2CO-AABz-DTPA′}; lactam N-7; not fully specified (N-terminus); reading uncertain; also: DTPA chelate of Eu) [MJ015]
- accumulation of europium in tumor compared to normal tissue (C8161 tumors): accumulated strongly and selectively in C8161 tumors
- ratio of tumor Eu-content to muscle Eu-content (C8161 tumors): 7.1

Molecule: a*LRSGRGE*-Teg-AEM-AABz-DTPA-Gd (LRSGRGE-{AEEEA-NHCH2CH2SCH2CO-AABz-DTPA′}; lactam N-7; not fully specified (N-terminus); reading uncertain; also: DTPA chelate of Gd) [MJ059]
- Observed compound peak heights prior to incubation ([2]; 0 h, human blood plasma/PBS 1:1, 37° C.): 100%
- Observed compound peak heights after four hours ([2]; 4 h, human blood plasma/PBS 1:1, 37° C.): 100%
- degradation during incubation in plasma ([2]; 4 h incubation in human plasma): no degradation

Molecule: a*LRSGRGE*-Tegc-AEM-AABz-DTPA-In (LRSGRGE-{PEG3-NHCH2CH2SCH2CO-AABz-DTPA′}; lactam N-7; not fully specified (N-terminus); reading uncertain; also: In chelated by DTPA) [MJ143]
- Peptide-DTPA[In] relative remaining peak areas/unbound fraction (%) ([1]; 0 h, mouse plasma, 10 μM, 37° C., ultrafiltrate): 71%
- Peptide-DTPA[In] relative remaining peak areas/unbound fraction (%) ([1]; 30 min, mouse plasma, 10 μM, 37° C., ultrafiltrate): 71%
- Peptide-DTPA[In] relative remaining peak areas/unbound fraction (%) ([1]; 1 h, mouse plasma, 10 μM, 37° C., ultrafiltrate): 70%
- Peptide-DTPA[In] relative remaining peak areas/unbound fraction (%) ([1]; 2 h, mouse plasma, 10 μM, 37° C., ultrafiltrate): 66%
- Peptide-DTPA[In] relative remaining peak areas/unbound fraction (%) ([1]; 4 h, mouse plasma, 10 μM, 37° C., ultrafiltrate): 61%
- plasma protein binding, lactam-bridged vs cystine-bridged version ([1]; mouse plasma in vitro): considerably lower plasma protein binding
- plasma stability, lactam-bridged vs cystine-bridged version ([1]; mouse plasma in vitro): greatly more stable
